What is called Kd is the concentration at which binding is half-saturated. A lower Kd goes with higher affinity.

The text below walks through data of patent US20110177071A1 (PERSEID THERAPEUTICS, published 2011).

Assay [1] concerns the target T1, human CD80-murine Ig fusion protein (human).
T1 construct: Bought (Ancell #510-820); also called hCD80-mIg; human CD80-murine IgG
T1 chain: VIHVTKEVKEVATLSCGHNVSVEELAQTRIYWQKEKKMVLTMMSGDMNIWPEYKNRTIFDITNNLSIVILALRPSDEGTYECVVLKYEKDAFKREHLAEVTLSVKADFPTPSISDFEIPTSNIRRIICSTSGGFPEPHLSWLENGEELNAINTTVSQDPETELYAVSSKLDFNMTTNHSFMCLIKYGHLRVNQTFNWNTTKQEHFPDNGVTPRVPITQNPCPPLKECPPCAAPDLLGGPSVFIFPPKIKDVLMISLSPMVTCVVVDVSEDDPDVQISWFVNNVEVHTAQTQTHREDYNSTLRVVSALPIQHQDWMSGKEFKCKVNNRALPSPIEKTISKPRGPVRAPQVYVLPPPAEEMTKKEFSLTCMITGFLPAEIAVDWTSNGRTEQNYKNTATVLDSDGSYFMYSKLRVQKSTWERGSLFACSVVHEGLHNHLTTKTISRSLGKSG
Description: SPR Biacore, hCD80-mIg captured. Background: Surface plasmon resonance follows binding to a sensor surface in real time, without labels.

Assay [2] addresses T2, human CD86-murine Ig fusion protein (human).
T2 construct: Bought (Ancell #509-820); also called hCD86-mIg
T2 chain: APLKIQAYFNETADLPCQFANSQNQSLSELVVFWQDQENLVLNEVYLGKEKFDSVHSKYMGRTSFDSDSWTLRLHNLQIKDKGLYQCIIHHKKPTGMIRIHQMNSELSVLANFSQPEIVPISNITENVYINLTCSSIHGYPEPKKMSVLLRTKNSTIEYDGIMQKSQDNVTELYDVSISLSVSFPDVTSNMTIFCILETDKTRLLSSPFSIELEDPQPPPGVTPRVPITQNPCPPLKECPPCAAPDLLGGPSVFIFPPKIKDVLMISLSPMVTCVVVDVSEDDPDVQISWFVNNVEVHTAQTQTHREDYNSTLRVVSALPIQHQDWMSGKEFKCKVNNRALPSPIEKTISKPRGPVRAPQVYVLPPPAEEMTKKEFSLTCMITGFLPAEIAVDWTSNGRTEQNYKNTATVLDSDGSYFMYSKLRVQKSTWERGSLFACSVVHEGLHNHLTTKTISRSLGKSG
The assay is described as follows: SPR Biacore, hCD86-mIg captured; upper end of the KD bin (2x Orencia). How it is done:
(§1) All Biacore™ analyses were performed on a Biacore™ 2000 system (GE Healthcare) at room temperature (RT, 25° C.). HBS-EP buffer (10 mM HEPES (pH 7.4), 150 mM NaCl, 3 mM EDTA, 0.005% surfactant P20) was used as the flow buffer for all experiments.
(§2) Rabbit anti-mouse IgG antibody (GE Healthcare, #BR-1005-14) was immobilized on CM5 sensor chips (GE Healthcare, #BR-1000-14) according to the manufacturer's protocol. Antibody was diluted to 30 μg/ml in immobilization buffer (10 mM sodium acetate, pH 5.0 (BR-1003-51)). At a flow rate of 5 μl/minute, sensor chip CM5 was activated with a 35 μl injection of a mixture of 1-Ethyl-3-[3-dimethylaminopropyl]carbodiimide hydrochloride (EDC) and N-hydroxysuccinimide (NHS) (made by mixing equal volumes of 11.5 mg/ml EDC and 75 mg/ml NHS) (GE Healthcare, #BR-1000-50), followed by a 35 μl injection of undiluted antibody. Un-reacted sites were quenched with 35 μl of 1M ethanolamine-HCL, pH 8.5 (GE Healthcare, #BR-1000-50). […] CTLA-4 ligands human CD80-murine Ig (hCD80-mIg) (Ancell, #510-820) or human CD86-murine Ig (hCD86-mIg) (Ancell, #509-820) were bound to antibody-coated sensor chips by injection of 10 μl or 16 μl, respectively, ligand solution (2 μg/ml protein in HBS-EP buffer [10 mM HEPES pH 7.4, 150 mM NaCl, 3 mM EDTA, 0.005% (v/v) surfactant P-20, GE Healthcare, #BR-1001-88]) at a flow rate of 10 μl/min.

Assay [3] deals with T2, human CD86-murine Ig fusion protein. Description: SPR Biacore, hCD86-mIg captured; lower end of the KD bin (10x Orencia). As for the experimental part:
as §1, §2

Assay [4] concerns the target T3, full-length human CD86 on HEK293 cells (human, UniProt P42081 24-329).
T3 sequence: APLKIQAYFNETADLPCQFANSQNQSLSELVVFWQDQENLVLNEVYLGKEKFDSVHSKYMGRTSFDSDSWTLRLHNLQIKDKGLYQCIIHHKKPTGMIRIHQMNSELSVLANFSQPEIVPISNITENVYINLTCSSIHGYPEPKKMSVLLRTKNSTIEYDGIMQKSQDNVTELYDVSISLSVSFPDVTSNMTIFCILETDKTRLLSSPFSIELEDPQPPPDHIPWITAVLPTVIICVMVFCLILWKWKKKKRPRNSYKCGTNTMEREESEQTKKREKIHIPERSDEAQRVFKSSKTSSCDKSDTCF
The assay is described as follows: cell-based or functional assay.

For assay [5], the target named is T2, human CD86-murine Ig fusion protein. Description: SPR Biacore, hCD86-mIg captured.
The target of assay [6] is T4, monomeric hCD86 ECD (papain-digested hCD86-mIg) (human, UniProt P42081 24-243).
T4 construct: also called monomeric hCD86-mIg ligand; monomeric CD86 ECD
T4 chain: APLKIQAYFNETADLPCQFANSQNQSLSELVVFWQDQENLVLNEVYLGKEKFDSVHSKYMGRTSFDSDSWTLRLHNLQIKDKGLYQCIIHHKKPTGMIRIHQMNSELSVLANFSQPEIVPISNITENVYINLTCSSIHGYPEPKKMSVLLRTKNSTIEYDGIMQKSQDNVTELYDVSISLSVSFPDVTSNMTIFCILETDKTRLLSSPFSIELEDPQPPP
Description: SPR Biacore, fusion protein captured, monomeric hCD86 ECD in flow. As for the experimental part: Regeneration between cycles was performed by 3 min incubation with 10 mM glycine buffer (pH 1.7) at 30 μl/min.
For kinetic analysis, data from monomeric binding assays were selected as described above except that association data selection began and ended 5 s from the injection start and stop times, and dissociation data selection started 5 s after the injection stop time, and typically included 1-60 s of the dissociation period. Such data were also analyzed for steady state equilibrium affinities using the BIAevaluation software. Steady state binding levels for each concentration (Responseeq (“Req”) values) were averaged over 5-20 s range near the end of the sample injection using the BIAevaluation “General fit: average” function.

Where a chain is given by its changes, count along the chain named.

B1: D1-IgG2 (Fc fusion)
chain: MHVAQPAVVLASSRGIASFVCEYESPHKATEIRVTVLRQANSQVTEVCAMTYMKGDELTFLDDPFCTGTFSGNQVNLTIQGLRAADTGLYICKVELMYPPPYYLGIGNGTQIYVIDPEPCPDSDERKCCVECPPCPAPPVAGPSVFLFPPKPKDTLMISRTPEVTCVVVDVSHEDPEVQFNWYVDGVEVHNAKTKPREEQFNSTFRVVSVLTVVHQDWLNGKEYKCKVSNKGLPAPIEKTISKTKGQPREPQVYTLPPSREEMTKNQVSLTCLVKGFYPSDIAVEWESNGQPENNYKTTPPMLDSDGSFFLYSKLTVDKSRWQQGNVFSCSVMHEALHNHYTQKSLSLSPG
Consider B1, for which the “Binding Avidity (Relative to Orencia)” value in assay [1] was over 2 fold. The dissociation constant (Kd) was under 0.439 nM in assay [1], at most 2.65 nM in assay [2] and at least 0.523 nM in assay [3].

B2: D3-IgG2 (Fc fusion)
chain: B1 chain with H27G, T30N, N41G, F65S, I106F
notes: also called clone D3
As for B2, in assay [4], the “Mean IC50 (nM), CD4+ T cell proliferation” value (from here on “Mean IC50 (nM)”) is 0.04 nM. Besides, the “Binding Avidity (Relative to Orencia)” value in assay [5] is over 40 fold. In addition, the dissociation constant (Kd) in assay [5] was under 0.131 nM; in assay [1] it was 0.439 to 1.75 nM; in assay [6], under 336 nM. Moreover, the “Binding Affinity (Relative to LEA29Y-Ig)” value in assay [6] was over 5 fold.

B3: D3-53-IgG2 (Fc fusion)
chain: B1 chain with H27G, T30N, N41G, F65S, L104E
As to B3, the “Mean IC50 (nM)” value in assay [4] was 0.02 nM. In addition, in assay [5], the “Binding Avidity (Relative to Orencia)” value is over 40 fold and the Kd is under 0.131 nM. In assay [1], the “Binding Avidity (Relative to Orencia)” value was over 2 fold and the equilibrium dissociation constant (Kd) was under 0.439 nM. In addition, in assay [6], the “Binding Affinity (Relative to LEA29Y-Ig)” value was over 5 fold and the Kd was under 336 nM.

B4: D3-20-IgG2 (Fc fusion)
chain: B1 chain with H27G, T30N, N41D, D56N, F65S, A85M
In the case of B4, the “Mean IC50 (nM)” value in assay [4] came to 0.04 nM. The Kd in assay [5] was 0.131 to 0.262 nM; in assay [1], 0.439 to 1.75 nM; in assay [6] it was 336 to 840 nM.

B5: D3-31-IgG2 (Fc fusion)
chain: B1 chain with H27G, T30N, N41D, G55E, F65S
Take B5: the “Mean IC50 (nM)” value in assay [4] was 0.03 nM. Besides, in assay [5], the “Binding Avidity (Relative to Orencia)” value is over 40 fold and the equilibrium dissociation constant (Kd) is under 0.131 nM. For the same molecule, in assay [1], the “Binding Avidity (Relative to Orencia)” value was over 2 fold and the dissociation constant (Kd) is under 0.439 nM. In assay [6], the “Binding Affinity (Relative to LEA29Y-Ig)” value is over 5 fold and the Kd is under 336 nM.

B6: D3-29-IgG2 (Fc fusion)
chain: B1 chain with E24A, H27G, T30N, N41D, F65S, A85M
With B6, the “Mean IC50 (nM)” value in assay [4] came to 0.04 nM. Further, the “Binding Avidity (Relative to Orencia)” value in assay [5] was over 40 fold. The Kd in assay [5] is under 0.131 nM; in assay [1] it was 0.439 to 1.75 nM; in assay [6], under 336 nM. In assay [6], the “Binding Affinity (Relative to LEA29Y-Ig)” value is over 5 fold.

B7: D3-27-IgG2 (Fc fusion)
chain: B1 chain with H27G, T30N, I32V, N41D, D56N, F65S, A85M
On to B7, for which the “Mean IC50 (nM)” value in assay [4] stood at 0.04 nM. The equilibrium dissociation constant (Kd) in assay [5] lay in the range of 0.131 to 0.262 nM; in assay [1] it was 0.439 to 1.75 nM; in assay [6] it was 336 to 840 nM.

B8: D3-12-IgG2 (Fc fusion)
chain: B1 chain with H27G, T30N, N41G, F65S
On to B8, for which the “Mean IC50 (nM)” value in assay [4] was 0.04 nM. In addition, in assay [5], the “Binding Avidity (Relative to Orencia)” value was over 40 fold and the Kd was under 0.131 nM. In addition, in assay [1], the “Binding Avidity (Relative to Orencia)” value is over 2 fold and the dissociation constant Kd is under 0.439 nM. Also, in assay [6], the “Binding Affinity (Relative to LEA29Y-Ig)” value is over 5 fold and the Kd is under 336 nM.

B9: D3-11-IgG2 (Fc fusion)
chain: B1 chain with H27G, T30N, N41G, F65S, A85M, I106F
As to B9, the “Mean IC50 (nM)” value in assay [4] was determined as 0.03 nM. Besides, in assay [5], the “Binding Avidity (Relative to Orencia)” value is over 40 fold. Moreover, the dissociation constant (Kd) is under 0.131 nM in assay [5], 0.439 to 1.75 nM in assay [1] and under 336 nM in assay [6]. In addition, the “Binding Affinity (Relative to LEA29Y-Ig)” value in assay [6] was over 5 fold.
